In patent publication US20260035458A1 (Astellas, published 2026):

T1: human CLDN9 (human, UniProt O95484 1-217)
T1 construct: whole, on cells; Transiently expressed on HEK293 cells
T1 sequence (looked up): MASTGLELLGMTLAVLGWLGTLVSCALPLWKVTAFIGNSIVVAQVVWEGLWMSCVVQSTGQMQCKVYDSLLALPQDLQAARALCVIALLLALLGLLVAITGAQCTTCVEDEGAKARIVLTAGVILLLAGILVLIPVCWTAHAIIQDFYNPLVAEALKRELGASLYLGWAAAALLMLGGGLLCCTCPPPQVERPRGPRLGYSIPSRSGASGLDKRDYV

B1: XENP24647 (bispecific antibody)
heavy: QVQLQQPGAELVRPGASVKLSCKASGYTFTSYWINWVKQRPGQGLEWIGNIYPSDSYTNYNQKFKDKATLTVDKSSSTAYMQLSSPTSEDSAVYYCTRSWRGNSFDYWGQGTTLTVSSASTKGPSVFPLAPSSKSTSGGTAALGCLVKDYFPEPVTVSWNSGALTSGVHTFPAVLQSSGLYSLSSVVTVPSSSLGTQTYICNVNHKPSDTKVDKKVEPKSCDKTHTCPPCPAPPVAGPSVFLFPPKPKDTLMISRTPEVTCVVVDVKHEDPEVKFNWYVDGVEVHNAKTKPREEEYNSTYRVVSVLTVLHQDWLNGKEYKCKVSNKALPAPIEKTISKAKGQPREPQVYTLPPSREEMTKNQVSLTCDVSGFYPSDIAVEWESDGQPENNYKTTPPVLDSDGSFFLYSKLTVDKSRWEQGDVFSCSVMHEALHNHYTQKSLSLSPGK
chain: QVQLQQPGAELVRPGASVKLSCKASGYTFTSYWINWVKQRPGQGLEWIGNIYPSDSYTNYNQKFKDKATLTVDKSSSTAYMQLSSPTSEDSAVYYCTRSWRGNSFDYWGQGTTLTVSSASTKGPSVFPLAPSSKSTSGGTAALGCLVKDYFPEPVTVSWNSGALTSGVHTFPAVLQSSGLYSLSSVVTVPSSSLGTQTYICNVNHKPSNTKVDKKVEPKSCGGGGSGGGGSEVQLVESGGGLVQPGGSLRLSCAASGFTFSTYAMNWVRQAPGKGLEWVGRIRSKYNNYATYYADSVKGRFTISRDDSKNTLYLQMNSLRAEDTAVYYCVRHGNFGDSYVSWFAYWGQGTLVTVSSGKPGSGKPGSGKPGSGKPGSQAVVTQEPSLTVSPGGTVTLTCGSSTGAVTTSNYANWVQQKPGKSPRGLIGGTNKRAPGVPARFSGSLLGGKAALTISGAQPEDEADYYCALWYSNHWVFGGGTKLTVLGGGGSGGGGSKTHTCPPCPAPPVAGPSVFLFPPKPKDTLMISRTPEVTCVVVDVKHEDPEVKFNWYVDGVEVHNAKTKPREEQYNSTYRVVSVLTVLHQDWLNGKEYKCKVSNKALPAPIEKTISKAKGQPREPQVYTLPPSREQMTKNQVKLTCLVKGFYPSDIAVEWESNGQPENNYKTTPPVLDSDGSFFLYSKLTVDKSRWQQGNVFSCSVMHEALHNHYTQKSLSLSPGK
light: DIVMTQSPSSLTVTAGEKVTMSCKSSQSLLNSGNQKNYLTWYQQKPGQPPKLLIYWASTRESGVPDRFTGSGSGTDFTLTISSVQAEDLAVYYCQNDYSYPFTFGSGTKLEIKRTVAAPSVFIFPPSDEQLKSGTASVVCLLNNFYPREAKVQWKVDNALQSGNSQESVTEQDSKDSTYSLSSTLTLSKADYEKHKVYACEVTHQGLSSPVTKSFNRGEC
notes: also called anti-CLDN18.2× anti-CD3 bsAb; Fab2-scFv
B2: XENP29476 (bispecific antibody)
heavy: EVQLVQSGAEVKKPGESLRISCKASGYTFTSYWINWVRQMPGKGLEWMGNIYPSDSYTNYNQKFQGHVTISVDKSISTAYLQWSSLKASDTAMYYCTRSWRGNSFDYWGQGTLVTVSSASTKGPSVFPLAPSSKSTSGGTAALGCLVKDYFPEPVTVSWNSGALTSGVHTFPAVLQSSGLYSLSSVVTVPSSSLGTQTYICNVNHKPSDTKVDKKVEPKSCDKTHTCPPCPAPPVAGPSVFLFPPKPKDTLMISRTPEVTCVVVDVKHEDPEVKFNWYVDGVEVHNAKTKPREEEYNSTYRVVSVLTVLHQDWLNGKEYKCKVSNKALPAPIEKTISKAKGQPREPQVYTLPPSREEMTKNQVSLTCDVSGFYPSDIAVEWESDGQPENNYKTTPPVLDSDGSFFLYSKLTVDKSRWEQGDVFSCSVMHEALHNHYTQKSLSLSPGK
chain: EVQLVQSGAEVKKPGESLRISCKASGYTFTSYWINWVRQMPGKGLEWMGNIYPSDSYTNYNQKFQGHVTISVDKSISTAYLQWSSLKASDTAMYYCTRSWRGNSFDYWGQGTLVTVSSASTKGPSVFPLAPSSKSTSGGTAALGCLVKDYFPEPVTVSWNSGALTSGVHTFPAVLQSSGLYSLSSVVTVPSSSLGTQTYICNVNHKPSNTKVDKKVEPKSCGGGGSGGGGSEVQLVESGGGLVQPGGSLRLSCAASGFTFSTYAMNWVRQAPGKGLEWVGRIRSKYNNYATYYADSVKGRFTISRDDSKNTLYLQMNSLRAEDTAVYYCVRHGNFGDSYVSWFAYWGQGTLVTVSSGKPGSGKPGSGKPGSGKPGSQAVVTQEPSLTVSPGGTVTLTCGSSTGAVTTSNYANWVQQKPGKSPRGLIGGTNKRAPGVPARFSGSLLGGKAALTISGAQPEDEADYYCALWYSNHWVFGGGTKLTVLGGGGSGGGGSKTHTCPPCPAPPVAGPSVFLFPPKPKDTLMISRTPEVTCVVVDVKHEDPEVKFNWYVDGVEVHNAKTKPREEQYNSTYRVVSVLTVLHQDWLNGKEYKCKVSNKALPAPIEKTISKAKGQPREPQVYTLPPSREQMTKNQVKLTCLVKGFYPSDIAVEWESNGQPENNYKTTPPVLDSDGSFFLYSKLTVDKSRWQQGNVFSCSVMHEALHNHYTQKSLSLSPGK
light: not shown
notes: as for B1
B3: XENP24644 (antibody, V domains shown)
VH: QVQLQQPGAELVRPGASVKLSCKASGYTFTSYWINWVKQRPGQGLEWIGNIYPSDSYTNYNQKFKDKATLTVDKSSSTAYMQLSSPTSEDSAVYYCTRSWRGNSFDYWGQGTTLTVSS
VL: DIVMTQSPSSLTVTAGEKVTMSCKSSQSLLNSGNQKNYLTWYQQKPGQPPKLLIYWASTRESGVPDRFTGSGSGTDFTLTISSVQAEDLAVYYCQNDYSYPFTFGSGTKLEIK
notes: also called H0L0 CLDN18.2; bivalent mAb
B4: XENP29470 (antibody, V domains shown)
VH: EVQLVQSGAEVKKPGESLRISCKASGYTFTSYWINWVRQMPGKGLEWMGNIYPSDSYTNYNQKFQGHVTISVDKSISTAYLQWSSLKASDTAMYYCTRSWRGNSFDYWGQGTLVTVSS
VL: DIVMTQSPDSLAVSLGERATINCKSSQSLLNSGNQKNYLTWYQQKPGQPPKLLIYWASTRESGVPDRFTGSGSGTDFTLTISSLQAEDVAVYYCQNDYSYPFTFGSGTKLEIK
notes: also called H1L1 CLDN18.2 (printed H1LI); bivalent mAb
B5: XENP29471 (antibody, V domains shown)
VH: QVQLVQSGAEVKKPGASVKVSCKASGYTFTSYWINWVRQAPGQGLEWMGNIYPSDSYTNYNQKFQGRVTMTVDKSTSTAYMELSSLRSEDTAVYYCTRSWRGNSFDYWGQGTLVTVSS
VL: DIVMTQSPDSLAVSLGERATINCKSSQSLLNSGNQKNYLTWYQQKPGQPPKLLIYWASTRESGVPDRFTGSGSGTDFTLTISSLQAEDVAVYYCQNDYSYPFTFGSGTKLEIK
notes: also called H2L1 CLDN18.2; bivalent mAb
B6: XENP24645 (bispecific antibody)
heavy: QVQLQQPGAELVRPGASVKLSCKASGYTFTSYWINWVKQRPGQGLEWIGNIYPSDSYTNYNQKFKDKATLTVDKSSSTAYMQLSSPTSEDSAVYYCTRSWRGNSFDYWGQGTTLTVSSASTKGPSVFPLAPSSKSTSGGTAALGCLVKDYFPEPVTVSWNSGALTSGVHTFPAVLQSSGLYSLSSVVTVPSSSLGTQTYICNVNHKPSDTKVDKKVEPKSCDKTHTCPPCPAPPVAGPSVFLFPPKPKDTLMISRTPEVTCVVVDVKHEDPEVKFNWYVDGVEVHNAKTKPREEEYNSTYRVVSVLTVLHQDWLNGKEYKCKVSNKALPAPIEKTISKAKGQPREPQVYTLPPSREEMTKNQVSLTCDVSGFYPSDIAVEWESDGQPENNYKTTPPVLDSDGSFFLYSKLTVDKSRWEQGDVFSCSVMHEALHNHYTQKSLSLSPGK
chain: not shown
light: DIVMTQSPSSLTVTAGEKVTMSCKSSQSLLNSGNQKNYLTWYQQKPGQPPKLLIYWASTRESGVPDRFTGSGSGTDFTLTISSVQAEDLAVYYCQNDYSYPFTFGSGTKLEIKRTVAAPSVFIFPPSDEQLKSGTASVVCLLNNFYPREAKVQWKVDNALQSGNSQESVTEQDSKDSTYSLSSTLTLSKADYEKHKVYACEVTHQGLSSPVTKSFNRGEC
notes: expressed in HEK293E cells; also called anti-CLDN18.2× anti-CD3 bsAb; Fab-scFv
B7: XENP29472 (bispecific antibody)
heavy: EVQLVQSGAEVKKPGESLRISCKASGYTFTSYWINWVRQMPGKGLEWMGNIYPSDSYTNYNQKFQGHVTISVDKSISTAYLQWSSLKASDTAMYYCTRSWRGNSFDYWGQGTLVTVSSASTKGPSVFPLAPSSKSTSGGTAALGCLVKDYFPEPVTVSWNSGALTSGVHTFPAVLQSSGLYSLSSVVTVPSSSLGTQTYICNVNHKPSDTKVDKKVEPKSCDKTHTCPPCPAPPVAGPSVFLFPPKPKDTLMISRTPEVTCVVVDVKHEDPEVKFNWYVDGVEVHNAKTKPREEEYNSTYRVVSVLTVLHQDWLNGKEYKCKVSNKALPAPIEKTISKAKGQPREPQVYTLPPSREEMTKNQVSLTCDVSGFYPSDIAVEWESDGQPENNYKTTPPVLDSDGSFFLYSKLTVDKSRWEQGDVFSCSVMHEALHNHYTQKSLSLSPGK
chain: not shown
light: not shown
notes: also called anti-CLDN18.2× anti-CD3 bsAb; Fab-scFv

Tests used:
human CLDN9 = target: T1, human CLDN9; assay: flow cytometry on HEK293 cells transiently transfected with human CLDN9, AF647 secondary antibody
human CLDN18.2 [1] = target: T2, human CLDN18.2 (human); assay: flow cytometry on HEK293 cells transiently transfected with human CLDN18.2 (column hCLDN18.2 EC50 (nM))
T2 construct: also called claudin 18 splice variant 2
Description: Therefore, the anti-CLDN18.2× anti-CD3 bsAbs were investigated for their binding to human CLDN18.2, cynomolgus CLDN18.2, and murine CLDN18.2. HEK293 cells were transiently transfected to express human, cynomolgus, or mouse CLDN18.2. 48 hours post transfection, cells were mixed with indicated concentrations of the bsAbs and incubated for 1 hour at 4° C. Cells were washed and then stained with a secondary Ab for 1 hour at 4° C. After two more washes, cells were analyzed on an Attune flow cytometer.

human CLDN18.2 [2] = target: T2, human CLDN18.2; assay: flow cytometry on SNU-601 (2E4) cells (enriched for CLDN18.2), Alexa Fluor 647 anti-human IgG Fcγ secondary
Excerpt: Control samples included bsAbs having murine CLDN18.2 ABDs, bivalent anti-CLDN18.2 mAbs, cells only, and secondary antibody only.

Binder | binding result (human CLDN9) | EC50 (human CLDN18.2 [1]) | EC50 (read off the curve) (human CLDN18.2 [2])
B1 | no binding (tested: 30000 ng/ml) | 4 nM | ~600 ng/mL
B2 | no binding (tested: 30000 ng/ml) | 6 nM | ~500 ng/mL
B3 | no binding (tested: 30000 ng/ml) | 4 nM | ~400 ng/mL
B4 |  |  | ~500 ng/mL
B5 |  |  | ~900 ng/mL
B6 | no binding (tested: 30000 ng/ml) | 145 nM | 
B7 | no binding (tested: 30000 ng/ml) | 146 nM | 
